Here are results for one molecule from PMC9307851.

Data set [1] deals with DNMT3B MTase domain R670Q (human, UniProt Q9UBC3 569-853, R670Q). Kind of data set: ITC; 5 C; N fixed at 0.5; ITC: 20 mM Tris-HCl pH 7.2, 200 mM NaCl, 5% glycerol, 2 mM b-mercaptoethanol, 5 C; EMSA: 50 mM Tris-HCl pH 8.0, 25% glycerol, 8% glucose, 2 mM DTT, 0.1 mg/mL BSA, 30 min, gel in 0.5x TBE at 4 C. The note with it: protein: recombinant; tags: His6-MBP removed by TEV; (only upper strand given). A general note: ITC needs no label: the signal is the heat of the interaction.

In data set [2] the target is DNMT3B MTase domain L664P (human, UniProt Q9UBC3 569-853, L664P). The experiment in a line: ITC; 5 C; N.M. (not measurable); text says much reduced; ITC: 20 mM Tris-HCl pH 7.2, 200 mM NaCl, 5% glycerol, 2 mM b-mercaptoethanol, 5 C; EMSA: 50 mM Tris-HCl pH 8.0, 25% glycerol, 8% glucose, 2 mM DTT, 0.1 mg/mL BSA, 30 min, gel in 0.5x TBE at 4 C. The note with it: protein: recombinant; tags: His6-MBP removed by TEV; (only upper strand given).

B1: 24-mer DNA duplex (GAC)8 (dsDNA)
DNA 1: GACGACGACGACGACGACGACGAC
DNA 2: GTCGTCGTCGTCGTCGTCGTCGTC
Consider B1, for which the Kd (in general, the free concentration of one partner at which half of the binding sites on the other are occupied at equilibrium, for simple one-to-one binding) in data set [1] came to 24.4 ± 4.4 µM. Also, the binding result in data set [2] is “no binding”.
